Assay [1] concerns the target T1, recombinant human PD-L1 fusion protein (human PD-L1 fused to an immunoglobulin Fc region) (human, UniProt Q9NZQ7 19-238).
T1 construct: extracellular domain; also called PD-L1-Fc fusion protein; PD-L1-Ig; not shown: immunoglobulin Fc region
Description: ELISA on hPD-L1/Fc, HRP goat anti-human IgG (kappa chain-specific) detection. The procedure: Standard ELISA procedures were performed. The anti-PD-L1 human monoclonal antibodies were added at different concentrations. Goat-anti-human IgG (kappa chain-specific) polyclonal antibody conjugated with horseradish peroxidase (HRP) was used as secondary antibody.

The target of assay [2] is T2, cynomolgus monkey PD-L1 expressed on the surface of activated T cells (cynomolgus monkey, UniProt G7PSE7 19-290).
T2 construct: also called cynomolgus monkey cell surface PD-L1; stimulated cynomolgus PBMC
T2 sequence (G7PSE7 entry or part of it limits assumed): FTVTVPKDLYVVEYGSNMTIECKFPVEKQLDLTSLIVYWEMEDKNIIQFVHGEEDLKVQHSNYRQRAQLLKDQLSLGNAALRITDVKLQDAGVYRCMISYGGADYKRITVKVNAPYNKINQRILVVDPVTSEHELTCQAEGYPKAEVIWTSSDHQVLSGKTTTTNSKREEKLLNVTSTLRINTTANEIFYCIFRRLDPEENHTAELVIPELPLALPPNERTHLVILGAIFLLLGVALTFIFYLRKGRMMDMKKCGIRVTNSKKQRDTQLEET
The assay can be described thus: flow cytometry titration on activated cynomolgus PBMC, FITC anti-human kappa detection, FL1 GMFI. The procedure: (§1) Anti-PD-L1 antibodies were tested by flow cytometry for binding to activated human or cynomolgus monkey T cells expressing PD-L1 on their surface.
(§2) Human or monkey T cells were activated by anti-CD3 antibody to induce PD-L1 expression prior to binding with a human anti-PD-L1 monoclonal antibody. […] An isotype control antibody was used as a negative control. The cells were washed and binding was detected with a FITC-labeled antihuman Ig-kappa light chain Ab. Flow cytometric analyses were performed using a FACScalibur flow cytometer (Becton Dickinson, San Jose, Calif.).

For assay [3], the target named is T1, recombinant human PD-L1 fusion protein …. Description: SPR (Biacore), PD-L1 fusion protein amine-coupled to CM5 chip, antibody flowed at 133 nM, 1:1 Langmuir fit. The procedure:
Anti-PD-L1 antibodies were characterized for affinities and binding kinetics by Biacore analysis (Biacore AB, Uppsala, Sweden). […] The antigen-antibody association kinetics was followed for 1 minute and the dissociation kinetics was followed for 1 minute. The association and dissociation curves were fit to a 1:1 Langmuir binding model using BIAevaluation software (Biacore AB). To minimize the effects of avidity in the estimation of the binding constants, only the initial segment of data corresponding to association and dissociation phases were used for fitting.

For assay [4], the target named is T3, human PD-L1 expressed at the cell surface (human, UniProt Q9NZQ7 19-290).
T3 construct: whole, on cells; also called cell surface PD-L1; hPD-L1
T3 sequence (Q9NZQ7 19-290): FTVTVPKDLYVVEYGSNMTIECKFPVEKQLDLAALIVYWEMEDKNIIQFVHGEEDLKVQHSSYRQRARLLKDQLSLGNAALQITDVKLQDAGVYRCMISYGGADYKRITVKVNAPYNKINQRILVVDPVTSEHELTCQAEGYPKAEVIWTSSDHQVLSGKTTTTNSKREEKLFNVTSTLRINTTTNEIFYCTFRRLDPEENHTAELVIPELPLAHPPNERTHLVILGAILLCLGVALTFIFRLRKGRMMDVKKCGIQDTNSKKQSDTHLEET
Description: flow cytometry titration on stimulated human CD4+ T cells, FITC anti-human kappa detection, FL1 GMFI. The procedure: as §1, §2

For assay [5], the target named is T3, human PD-L1 expressed at the cell …. Description: flow cytometry titration on CHO cells transfected with human PD-L1, FITC-labeled anti-human IgG detection. An excerpt:
Chinese hamster ovary (CHO) cell lines that express recombinant human PD-L1 at the cell surface were developed and used to determine the specificity of PD-L1 human monoclonal antibodies by flow cytometry. CHO cells were transfected with expression plasmids containing full length cDNA encoding transmembrane forms of PD-L1. […] The cells were washed and binding was detected with a FITC-labeled anti-human IgG Ab. Flow cytometric analyses were preformed using a FACScan flow cytometry (Becton Dickinson, San Jose, Calif.). The binding was compared to the parent CHO cell line. […] Binding was also tested using varying concentrations of anti-PD-L1 antibody.

The target is the same in assay [6]. Description: flow cytometry titration on IFN-gamma-treated ES-2 cells, anti-human kappa detection (sheet title), FL1 GMFI.
For assay [7] the target is unchanged. The assay can be described thus: flow cytometry blocking assay: antibody titrated on IFN-gamma-treated ES-2 cells, then PD-1-hFc at 2 ug/mL, detected with biotinylated 26D5 and streptavidin-PE (FL2 GMFI). The procedure:
The blocking was compared to isotype control antibody.
ES-2 cells were induced overnight with 500 IU/mL of hIFN-γ to upregulate hPD-L1 cell surface expression. Induced cells were suspended in FACS buffer. […] Finally, bound 26D5 antibody was detected by addition of streptavidin-PE conjugate at 4° C. for 30 minutes, followed by two washes to remove unbound conjugate. Flow cytometric analysis was performed using a FACScalibur flow cytometer (Becton Dickinson, San lose, Calif.). The results are depicted in FIG. 46.

Assay [8] concerns the target T1, recombinant human PD-L1 fusion protein …. The assay can be described thus: Biacore equilibrium binding, 25 C.
Assay [9] has the same target. Description: Biacore equilibrium binding, 37 C.
The target is the same in assay [10]. Description: flow cytometry blocking assay: antibody titrated against FITC-labeled PD-L1-Fc binding to CHO cells expressing human PD-1. The procedure:
Anti-PD-L1 human monoclonal antibodies were tested for the ability to block binding of the ligand PD-L1 to PD-1 expressed on transfected CHO cells by using a cell cytometry assay.
PD-1 expressing CHO cells were suspended in FACS buffer (PBS with 4% fetal calf serum). […] Flow cytometric analyses were performed using a FACScalibur flow cytometer (Becton Dickinson, San Jose, Calif.).

From US20160362495A1 (E R SQUIBB AND SONS L L C, published 2016) come the findings set out here.

Changes are numbered by the printed parent chain.

T1 sequence (Q9NZQ7 19-238): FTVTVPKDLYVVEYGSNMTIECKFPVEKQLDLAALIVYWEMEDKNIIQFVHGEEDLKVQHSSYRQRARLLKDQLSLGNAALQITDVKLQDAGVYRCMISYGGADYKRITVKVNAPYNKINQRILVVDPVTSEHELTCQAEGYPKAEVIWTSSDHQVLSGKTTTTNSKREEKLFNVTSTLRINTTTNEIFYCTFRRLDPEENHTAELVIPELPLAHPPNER

B1: 3G10 human monoclonal antibody (antibody, V domains shown)
VH: QVQLVQSGAEVKKPGASVKVSCKASGYTFTDYGFSWVRQAPGQGLEWMGWITAYNGNTNYAQKLQGRVTMTTDTSTSTVYMELRSLRSDDTAVYYCARDYFYGMDVWGQGTTVTVSS
VL: EIVLTQSPATLSLSPGERATLSCRASQSVSSYLVWYQQKPGQAPRLLIYDASNRATGIPARFSGSGSGTDFTLTISSLEPEDFAVYYCQQRSNWPRTFGQGTKVEIK
notes: Fully human IgG kappa antibody from a KM-mouse hybridoma; also called HuMAb 3G10
Turning to B1, the figures for the “EC50 (read off the curve)” value in [1] and in assay [5] were around 0.1 µg/mL and around 0.3 µg/mL, respectively. Further, the results for the EC50 in assay [2], in assay [4] and in [6] were 0.38 nM, 0.23 nM and 0.42 nM, respectively. Besides, the Kd in assay [3] is 3.39 nM. Moreover, half-maximal inhibition in [7] (IC50) was put at 0.47 nM.

B2: 10A5 human monoclonal antibody (antibody, V domains shown)
VH: QVQLVQSGAEVKKPGASVKVSCKASGYTFTSYDVHWVRQAPGQRLEWMGWLHADTGITKFSQKFQGRVTITRDTSASTAYMELSSLRSEDTAVYYCARERIQLWFDYWGQGTLVTVSS
VL: DIQMTQSPSSLSASVGDRVTITCRASQGISSWLAWYQQKPEKAPKSLIYAASSLQSGVPSRFSGSGSGTDFTLTISSLQPEDFATYYCQQYNSYPYTFGQGTKLEIK
notes: Fully human IgG kappa antibody from a KM-mouse hybridoma; also called HuMAb 10A5
B2: the Kd worked out at 0.57 nM in [8], 2.41 nM in assay [9] and 1.45 nM in assay [3]. Also, the figures for the “EC50 (read off the curve)” value in assay [1] and in assay [5] were around 0.08 µg/mL and around 0.3 µg/mL, respectively. The koff in assay [3] was found to be 0.000372 s⁻¹. Also, in assay [3], the kon came out at 258000 M⁻¹ s⁻¹. A half-maximal effect in assay [6] (EC50) was put at 0.38 nM. Also, the “IC50 (read off the curve)” value in assay [10] was around 3 µg/mL. In assay [7], this molecule showed an IC50 of 0.29 nM.

B3: 10H10 human monoclonal antibody (antibody, V domains shown)
VH: EVQLVESGGGLVQPGRSLRLSCAVSGFTFDDYVVHWVRQAPGKGLEWVSGISGNSGNIGYADSVKGRFTISRDNAKNSLYLQMNSLRAEDTALYYCAVPFDYWGQGTLVTVSS
VL: B2 VL
notes: Fully human IgG kappa antibody from a KM-mouse hybridoma
With B3, the Kd was 5.48 nM in assay [8] and 5.93 nM in assay [9].

B4: 1B12 human monoclonal antibody (antibody, V domains shown)
VH: QVQLVQSGAEVKKPGSSVKVSCKTSGDTFSSYAISWVRQAPGQGLEWMGGIIPIFGRAHYAQKFQGRVTITADESTSTAYMELSSLRSEDTAVYFCARKFHFVSGSPFGMDVWGQGTTVTVSS
VL: not shown
notes: as for B3
With B4, the Kd in assay [9] is 1.38 nM. Moreover, the EC50 in assay [2] amounted to 0.15 nM; in assay [4], 0.06 nM; in assay [6] it was 0.23 nM. In assay [7], this molecule displayed an IC50 of 0.21 nM.

B5: 12A4 human monoclonal antibody (antibody, V domains shown)
VH: B4 VH with S31T, R57K
VL: not shown
notes: Fully human IgG kappa antibody from a KM-mouse hybridoma; also called HuMAb 12A4
In assay [2], B5 registered an EC50 of 0.1 nM.

B6: 7H1 human monoclonal antibody (antibody, V domains shown)
VH: B4 VH with D27G, R57K, S77T, F95Y, F100Y, H101D, F102Y
VL: not shown
notes: as for B3
For the molecule B6, in assay [9], the Kd came to 2.15 nM.
